In the DeepSol protein solubility set:

Assay: soluble on expression in E. coli; label from the status in PepcDB or PDB records
With “IIGGREVIPHSRPYMASLQRNGSHLCGGVLVHPKWVLTAAHCLAQRMAQLRLVLGLHTLDSPGLTFHIKAAIQHPRYKPVPALENDLALLQLDGKVKPSRTIRPLALPSKRQVVAAGTRCSMAGWGLTHQGGRLSRVLRELDLQVLDTRMCNNSRFWNGSLSPSMVCLAADSKDQAPCKGDSGGPLVCGKGRVLAGVLSFSSRVCTDIFKPPVATAVAPYVSWIRKVTGRSALEHHHHHH” the “soluble on expression in E. coli” value was “soluble”.
For “MSLAKSNDKTVTMYSIGPRLKAFSDWLLKTMAAGNLGVIFPAASREYAPLVEELWRDAAIQATYKRRSELGLLPSVANYFLERAIDVLTPDYEPSDVDILYAEGVTSSSGLACLDFSFPQTASEENLDPSDHHDSLLRYQLIRVPSRGLGENCKWIDMFEDVGMVVFVVSMSDYDQVSEDGTNKMLLTKKLFESIITHPIFENMDFLLILNKYDLLEEKVERVPLARCEWFQDFNPVVSRHRGSNNGNPTLGQLAFHFMAVKFKRFYSSLTGKKLFVSSSKSLDPNSVDSSLKLAMEILKWSEERTNICMSEYSMYSTEGHHHHHH”, the “soluble on expression in E. coli” value was “not soluble”.
For “MGSDKIHHHHHHMLVENSHTPDALAEAFATVDGLMATGKFARSLSVMLPFVQTGELDAGLLDRTADCFFEMRDYENAVNVMRHVTATWPDDPSAWGKLGLMLQTKGDLLGAEQAFEEVLKRDPNSIPALTALNGIETFSVDSLYAQRLMSLSEREDLDAKHRALIHYALAQIAHGSGEAEVAFTLFQSARNEVAGPFAPAIFDEMVAEQEALFEPRPASEDASLLPKLVFIGGMPMSGTGLVDRILAQHPGVFSVGAKTALSRTHGAIRMHLAKTDRPCNYWDWMEHLSAEEIDIFRQYYLERALGGQVAGGKTIVDAHPLGCLEFGLAQFLFPEAKFVFMSRHPMDTALANIASNVLNGNALASRTEWIAQVMRTVYSSATVYASKLGDSMRLQSYEALVQNSEREIGLLLEHAGLEYNAACLTPNALCDVPQIATMLGQEELSTETQNQWLPYEEQLQGFYEQLGGERWVSAWEDFDKTLR”, the “soluble on expression in E. coli” value was “not soluble”.
For “MGSDKIHHHHHHMCRWLAYSGRSVPLEAVLFQPEHSLIDQSLNARLGHTTTNGDGFGVGWYGRHSEVPFRYRCLHPAWSDTNLRETARAVRAPLFVAHVRAATGTPTQETNCHPFRFGRWLFVHNGLIREFPLLRRDLMMAVSPQLFRWIEGSTDSEIMFFLALTFGLERDPRAALEQMVGLIEEVGHRYDVEHPINMTVCVTDGQQIVAVRYSSEADSRSLFHSTSFRQLRELYPDDPRIIAAGDDAFLVLSEPLIDVQGVWQEIPEATILVGRAGVIDYSRFTPRMPELSS”, the “soluble on expression in E. coli” value was “not soluble”.
In the case of “MSKSTRSRRKKKSKGGDRSERKTNKSERKKKGAKSDIGKKKKKNETVSKDQTNTGVSTGAEGVEKKEKEQWSGDETAKKLVASGAFNTSTITSGFKELSNPKPSADMCSIFKNNPKKSRAPDWPIADNKLIKLSHAPGNFICAAKVDVPEFNRTMIVTQIPDVTVSANIEDFWRMIFQEEIVSIVIAVMPLECSVTLQQLFPLLSGTFSNHGKMFLNNKKVDSAVAMTAYTLEVLPDGCSNSLLSTVYHLHNWKQKQGLENVGELVTTVEKVLKTNENTVLMSMNGIGRAGTMLTLFTSMLSVQKSKEVNPKEILIKLRGERSGLVENADQFNTVHRAMALWFKNKCSDEEVQKKVVEFAPNLTTEAVERSSYEYLNSQHFLYPILLESMLHQHQMKQVLLKKVERSMERSKL”, the “soluble on expression in E. coli” value is reported as “not soluble”.
With “MGSDKIHHHHHHMAAKGKKKNFVLDTNVMLHDYECIEKFEENDIYIPIVSLEELDKFKKGSEQINFNARAFVRRLDEISDQDLFAKGASLGEGLGRIFVKINGQYHTKVKEAFGENKADHRILSIAMTLADEQPNIKTILVTKDVNLRMKARSLGMLVEDYINDKVTRVDLFENAEPEYEGVDGDLIDRIYASKDGIDIDEWELGSKIDPNDCFVMKSERNSVLARYNPFTGKIVRVEKGHYFGIQPRNAEQTFAMHILTDPNVKLIGLTGKAGTGKTLLALAAALSQEQSYKQILLARPIVSLANKDLGFLPGDEKAKVAPYMQPLFDNLNVIKGQLAQNSSELRRLDEMQKTEKLVIEALAYIRGRSVSETIFIVDEAQNLTPHEIKTIITRAGEGSKLIFTGDIEQIDSPYLDAQSNGLAYMIERMKGQPLFAHVNLIKGERSELSELASDLL” the “soluble on expression in E. coli” value was “not soluble”.
In the case of “MGSSHHHHHHSSGLVPRGSHMEPAATTYGTSTSVGVHNAYEKEKYRYFADALDSGAALLELDLWSNALGRSWRVSHSNPLGNNSNCEGAANASELRTKSRDQDFAGCLSDMRAWHDAHPGHRPILLKIEMKDGFNAKGGRGPAEFDALIRQKLGDAVYGPGDLTGGHATADEAVRAGGWPSRADLAGKFLFELIPGTVEEKNPFDKLWTDVEYAGHLKDLAAQGKLAQSTAFPAVHGAAPGDPRERYADPALRPWFVVFDGDAATYLNGSIDTSWYDTRHYLLIMTDAHNVPPVIDGTHPTEAEALARVRQLAAAHASFATADWYPLPSVLKTVVPRGA”, the “soluble on expression in E. coli” value is reported as “soluble”.
In the case of “GSHPLGDTSDASKLSSDYSLPDLINTRKVPNNWQTGEQASLEEGRIVLTSNQNSKGSLWLKQGFDLKDSFTMEWTFRSVGYSGQTDGGISFWFVQDSNIPRDKQLYNGPVNYDGLQLLVDNNGPLGPTLRGQLNDGQKPVDKTKIYDQSFASCLMGYQDSSVPSTIRVTYDLEDDNLLKVQVDNKVCFQTRKVRFPSGSYRIGVTAQNGAVNNNAESFEIFKMQFFNGVIEDSLIPNVNAMGQPKLITKYIDQQTG”, the “soluble on expression in E. coli” value is reported as “soluble”.
With “PKHGKRYRALLEKVDPNKIYTIDEAAHLVKELATAKFDETVEVHAKLGIDPRRSDQNVRGTVSLPHGLGKQVRVLAIAKGEKIKEAEEAGADYVGGEEIIQKILDGWMDFDAVVATPDVMGAVGSKLGRILGPRGLLPNPKAGTVGFNIGEIIREIKAGRIEFRNDKTGAIHAPVGKASFPPEKLADNIRAFIRALEAHKPEGAKGTFLRSVYVTTTMGPSVRINPHS” the “soluble on expression in E. coli” value was “soluble”.
In the case of “MEKNEKNGVFSRVRSRWRSIFSKKANPVKLRDCNRLTFERILSDPNEQIGTIVAQATVEPITLPNGGGIALIQETTLYEEDYGLEDSSNFPIISETAQSLRRRMRRLSSGDLNVIRRMTEEIDFDLKNIIYDGNEITGETDADNGNDRACFKPGPDYPIDQQMLFLKQCIKKIDTRPPNMYYLTNGWSVDNFEALFKYMIRSGEDCSRDTLLRVEFRDCVVSLKSLYDFIEEYATFKGVKMHSDYVYAIVHSRNEKLERRLRGAIDSFMEIESKIRQARISYVSSFTINSPHTPNVSIIVKFCCLKPCNSDAKTKMRQISVQVDHVTGRSRMSLPDVRQHEGLVCECLGDFSLIRHRPTSVPVTKILDEHPPLIVDEEVRLKSSYQFNPVTGEPIPDDEQQQEQTEIEVNKKIKKPKIVPNQTLLGNEHDIFPRFSIFIGFYKASIEDPLEINDFVEMFPLILVLLEKAGIQELEDGDAPEKSVSKYPKKRSIVDGASSETCEDTQSVGSSESSEPRSPEFTEYSESEDTAADSETSDSESSSEDEKENMKSSIKELELIKDAPEDL”, the “soluble on expression in E. coli” value is reported as “soluble”.
For “AATQTWTGDLAIVTIPFSSLRFVKVTPPFSYKKRRAVIETHYDQATKVLLEFSRRWWEFTEADWKRELDAIAPGLYDYYQQWGEDDAEAALALPQSVRNLPTGLLGAHPSVDESRIGEEQVEYYRNSELR”, the “soluble on expression in E. coli” value was “soluble”.
In the case of “YGNMTEDHVMHLLQNADPLKVYPPLKGSFPENLRHLKNTMETIDWKVFESWMHHWLLFEMSRHSLEQKPTDAPPK”, the “soluble on expression in E. coli” value is reported as “soluble”.
In the case of “MPVTEVGSLPELNNILERSDANRLIIIDFFANWCGPCRMISPIFEQFSAEYGNATFLKVNCDVARDIVQRYNISAMPTFIFLKNRQQVDMVRGANQQAIAEKIRQHYSPTPANPNAASDSEKRFLEQFVKCSNVPRSYQDEVFKALARSVMPEELVGRAMTEGPRDEKAILKDLLHWFKTQFFTWFDRPTCPKCTLKCSTDGLQGTPTREEQKEGGASRVEVYICDGCNTEMRFPRYNNPAKLLQTRTGRCGEWANCFGLLLAALNLESRFIYDTTDHVWNEVYLLAEQRWCHVDPCENTMDRPLLYTRGWGKTLGYCIGYGSDHVVDVTWRYIWDSKKLVTQRNEVRQPVFENFLSKLNSRQAEGQTEPRKRELAVRRVCELMEMMAQEAKNHKIGWEKIGDDLGGRITGSEEWRRERGELGESGPKLLAEPIKLAPPTGPAQNYLEFNYDVITDTYSQPPEIGFSAQAFELENVQRVEETDWNMTYLCRKRGDAPGNISWHFDLKSLKKSIEKIEIRMAGIQKFEKGKAMAIACLGDSCMRLPIDCSALTIEDPKNAEILKITATLSGGEGAIGFQQAQIFRTELKRGGGARTESFSVKIWMKN”, the “soluble on expression in E. coli” value is reported as “not soluble”.
